Holding throughout (test): cell-based or functional assay
In test [1] the target is SARS-CoV-2 Omicron variant BA.2.75.2 spike protein (SARS-CoV-2).
In test [2] the target is SARS-CoV-2 Omicron variant XBB spike protein (SARS-CoV-2).
Test [3] deals with SARS-CoV-2 Omicron variant B.1.1.529 spike protein (SARS-CoV-2).
In test [4] the target is SARS-CoV-2 Omicron variant BA.4/5 spike protein (SARS-CoV-2).
The target in test [5] is SARS-CoV-2 Omicron variant BQ.1.1 spike protein (SARS-CoV-2).
The target in test [6] is SARS-CoV-2 Omicron variant BF.7 spike protein (SARS-CoV-2).
Test [7] addresses SARS-CoV-2 Omicron variant BA.4.6 spike protein (SARS-CoV-2).
For test [8], the target named is SARS-CoV-2 Delta variant spike protein (SARS-CoV-2).
Test [9] deals with SARS-CoV-2 Omicron variant BQ.1 spike protein (SARS-CoV-2).

B1: MX1022 (bispecific antibody)
chain: DTVMTQSPLSLPVTPGEPASISCRSSQSLLNSNGYNYLDWYVQKPGQSPQLLIYLGSNRASGVPDRFSGSGSGTDFTLKISRVEAEDVGVYYCMQPLQTPLFTFGPGTKVEIKGGSSGEIVMTQSPAILSVSPGERATLSCRASQSVAINLAWYQQKPGQAPRLLIYAASSRATGIPGRFSGSGSETNFTLTISSLQSGDFAVYYCQQYITWPPSYTFGQGTKLEIKGGGGSGGSGSGGGGSASGSGEVQLVESGGALIQPGGSLRLSCAASGIIVSANYMSWVRQAPGKGLEWVSVIYSGGSTFYADSVKGRFTISRDNSKNTLYLEMNSLRAEDTAVYYCARDAPILGVSDWGQGTLVTVSSGGSSGQVTLRESGPALVKPTQTLTLTCTFSGFSLSTRGVCVSWIRQPPGKALEWLAFIDWDDDKYYNTSLKTRLTISKDTSKNQVVLTMTNVHPVDTATYYCARISSHHGSSWCTTFDYWGQGALVTVSAASGGSGDKTHTCPPCPAPELLGGPSVFLFPPKPKDTLMISRTPEVTCVVVDVSHEDPEVKFNWYVDGVEVHNAKTKPREEQYNSYVVSVLTVLHQDWLNGKEYKCKVSNKALPAPIEKTISKAKGQPREPQVYTLPPSRDELTKNQVSLTCLVKGFYPSDIAVEWESNGQPENNYKTTPPVLDSDGSFFKKLTVDKSRWQQGNVFSCSVLHEALHSHYTQKSLSLSPG
As to B1, the IC50, pseudovirus neutralization in test [1] was 0.00089 µg/mL; in test [2], 0.00585 µg/mL; in [3], 0.00422 µg/mL; in test [4] it was 0.00198 µg/mL; in test [5] it was 0.00113 µg/mL; in test [6], 0.00238 µg/mL. Besides, the IC50, pseudovirus neutralization in test [7] is 0.0049 µg/mL; in [8], 0.0315 µg/mL; in test [9], 0.00658 µg/mL. In addition, the IC80, pseudovirus neutralization was determined as 0.0028 µg/mL in test [1]; 0.0124 µg/mL in test [2]; 0.00474 µg/mL in test [3]; 0.00333 µg/mL in [4]; 0.00672 µg/mL in test [5]; 0.00829 µg/mL in test [6]. Also, the results for the IC80, pseudovirus neutralization in test [7], in test [8] and in test [9] were 0.00882 µg/mL, 0.0254 µg/mL and 0.0192 µg/mL, respectively.

B2: MX1021 (bispecific antibody)
chain: QTVVTQEPSFSVSPGGTVTLTCGLSSGSVSTAYFPSWYQQTPGQAPRTLIYGTNTRSSGVPDRFSGSILGNKAALTITGAQADDESDYYCVLYMGRGIVVFGGGTKLTVLGGSSGEIVMTQSPAILSVSPGERATLSCRASQSVAINLAWYQQKPGQAPRLLIYAASSRATGIPGRFSGSGSETNFTLTISSLQSGDFAVYYCQQYITWPPSYTFGQGTKLEIKGGGGSGGSGSGGGGSASGSGEVQLVESGGALIQPGGSLRLSCAASGIIVSANYMSWVRQAPGKGLEWVSVIYSGGSTFYADSVKGRFTISRDNSKNTLYLEMNSLRAEDTAVYYCARDAPILGVSDWGQGTLVTVSSGGSSGQVQLVESGGGVVQPGRSLRLSCAASGFTLSSYGMHWVRQAPGKGLEWVAVISYDGSNKYYVDSVKGRFTISRDNSKNTLYLQMNSLRAEDTAVYYCRWAYWELLPDYYYGMDVWGQGTTVTVSSASGGSGDKTHTCPPCPAPELLGGPSVFLFPPKPKDTLMISRTPEVTCVVVDVSHEDPEVKFNWYVDGVEVHNAKTKPREEQYNSYVVSVLTVLHQDWLNGKEYKCKVSNKALPAPIEKTISKAKGQPREPQVYTLPPSRDELTKNQVSLTCLVKGFYPSDIAVEWESNGQPENNYKTTPPVLDSDGSFFKKLTVDKSRWQQGNVFSCSVLHEALHSHYTQKSLSLSPG
For the molecule B2, the IC50, pseudovirus neutralization worked out at 0.00373 µg/mL in test [1]; 0.0147 µg/mL in test [2]; 0.00291 µg/mL in [3]; 0.0138 µg/mL in test [4]; 0.00277 µg/mL in test [5]; 0.0113 µg/mL in test [6]. Moreover, the IC50, pseudovirus neutralization was 0.0129 µg/mL in test [7], 0.0648 µg/mL in [8] and 0.0113 µg/mL in [9]. The IC80, pseudovirus neutralization turned out to be 0.0132 µg/mL in test [1]; 0.0611 µg/mL in test [2]; 0.0131 µg/mL in [3]; 0.026 µg/mL in test [4]; 0.0285 µg/mL in test [5]; 0.0317 µg/mL in test [6]. Also, the values for the IC80, pseudovirus neutralization in test [7], in [8] and in [9] were 0.0414 µg/mL, 0.219 µg/mL and 0.0519 µg/mL, respectively.

For the origin of these results see US20240109955A1.
